Values quoted from earlier work in PMC9464413.
pKd: −log10 of the molar value.

Target: p97 (Homo sapiens) (UniProt P55072)
Experiment: SPR

UniProt P55072, sequence (P55072 2-806): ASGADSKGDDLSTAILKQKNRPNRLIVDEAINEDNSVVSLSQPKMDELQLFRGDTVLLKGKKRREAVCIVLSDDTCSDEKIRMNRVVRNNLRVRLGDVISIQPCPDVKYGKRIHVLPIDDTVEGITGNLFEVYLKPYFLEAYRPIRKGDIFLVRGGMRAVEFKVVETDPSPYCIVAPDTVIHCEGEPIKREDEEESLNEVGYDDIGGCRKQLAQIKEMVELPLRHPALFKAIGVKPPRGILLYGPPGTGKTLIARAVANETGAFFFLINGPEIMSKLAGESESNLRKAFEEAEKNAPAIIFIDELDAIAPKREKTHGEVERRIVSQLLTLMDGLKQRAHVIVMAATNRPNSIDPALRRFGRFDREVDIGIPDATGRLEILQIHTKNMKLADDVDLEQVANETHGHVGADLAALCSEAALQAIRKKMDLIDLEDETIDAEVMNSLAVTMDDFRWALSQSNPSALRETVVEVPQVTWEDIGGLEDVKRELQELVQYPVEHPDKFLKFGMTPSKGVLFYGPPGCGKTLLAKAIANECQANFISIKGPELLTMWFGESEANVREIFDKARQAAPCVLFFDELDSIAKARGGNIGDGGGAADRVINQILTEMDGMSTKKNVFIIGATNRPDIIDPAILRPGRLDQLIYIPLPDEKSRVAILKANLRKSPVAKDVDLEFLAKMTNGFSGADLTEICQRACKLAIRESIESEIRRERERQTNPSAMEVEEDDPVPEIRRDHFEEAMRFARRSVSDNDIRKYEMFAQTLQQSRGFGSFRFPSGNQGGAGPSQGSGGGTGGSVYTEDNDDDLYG

Row | Substance | pKd
1 | p37 (from UniProt Q14CS0) | 7.54
2 | p47 (from UniProt Q9UNZ2) | 7.70
